In publication PMC8345109, “Optimization of New Catalytic Topoisomerase II Inhibitors as an Anti-Cancer Therapy” (Cancers, 2021):

Tests used:
[1] = target: TOP2A(431-1193) (Homo sapiens, UniProt P11388 431-1193); test: EMSA; merbarone; FP: 20 mM HEPES-NaOH pH 7.4, 2 mM DTT, 3 mM MgCl2, 0.05% NP-40, protease inhibitors, room temperature 20 min; EMSA buffer not in material; conditions: protein: recombinant; tags: N-terminal 6xHis (pET28a); label: IRDye700 (printed IRDay700); blunt; self-complementary 20-mer, 2 copies
Chain of TOP2A(431-1193) (P11388 431-1193): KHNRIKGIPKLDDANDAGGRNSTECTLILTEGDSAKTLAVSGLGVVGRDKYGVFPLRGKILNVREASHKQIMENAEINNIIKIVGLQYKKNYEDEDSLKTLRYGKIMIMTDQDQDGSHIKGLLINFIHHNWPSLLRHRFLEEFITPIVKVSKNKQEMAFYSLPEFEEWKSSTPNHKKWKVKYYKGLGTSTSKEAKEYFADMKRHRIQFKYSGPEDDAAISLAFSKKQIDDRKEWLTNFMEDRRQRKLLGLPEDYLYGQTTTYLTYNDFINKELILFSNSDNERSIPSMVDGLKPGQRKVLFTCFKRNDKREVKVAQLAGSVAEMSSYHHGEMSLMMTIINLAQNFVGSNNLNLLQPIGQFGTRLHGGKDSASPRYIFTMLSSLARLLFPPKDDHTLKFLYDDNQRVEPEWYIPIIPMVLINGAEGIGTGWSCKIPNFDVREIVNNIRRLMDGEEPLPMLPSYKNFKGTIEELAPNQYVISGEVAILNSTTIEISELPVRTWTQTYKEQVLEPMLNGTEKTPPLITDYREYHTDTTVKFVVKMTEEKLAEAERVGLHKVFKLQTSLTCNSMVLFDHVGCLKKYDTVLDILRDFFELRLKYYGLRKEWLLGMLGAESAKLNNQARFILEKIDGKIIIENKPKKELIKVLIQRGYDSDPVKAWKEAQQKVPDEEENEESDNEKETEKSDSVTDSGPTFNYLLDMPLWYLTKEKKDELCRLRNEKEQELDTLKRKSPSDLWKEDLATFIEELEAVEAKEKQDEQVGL

[2] = target: TOP2A full-length (Homo sapiens, UniProt P11388 1-1531); test: EMSA; 200 uM ICRF193; FP: 20 mM HEPES-NaOH pH 7.4, 2 mM DTT, 3 mM MgCl2, 0.05% NP-40, protease inhibitors, room temperature 20 min; EMSA buffer not in material; conditions: protein: recombinant; label: IRDye700 (printed IRDay700); blunt; self-complementary 20-mer, 2 copies
Chain of TOP2A full-length (P11388 whole entry): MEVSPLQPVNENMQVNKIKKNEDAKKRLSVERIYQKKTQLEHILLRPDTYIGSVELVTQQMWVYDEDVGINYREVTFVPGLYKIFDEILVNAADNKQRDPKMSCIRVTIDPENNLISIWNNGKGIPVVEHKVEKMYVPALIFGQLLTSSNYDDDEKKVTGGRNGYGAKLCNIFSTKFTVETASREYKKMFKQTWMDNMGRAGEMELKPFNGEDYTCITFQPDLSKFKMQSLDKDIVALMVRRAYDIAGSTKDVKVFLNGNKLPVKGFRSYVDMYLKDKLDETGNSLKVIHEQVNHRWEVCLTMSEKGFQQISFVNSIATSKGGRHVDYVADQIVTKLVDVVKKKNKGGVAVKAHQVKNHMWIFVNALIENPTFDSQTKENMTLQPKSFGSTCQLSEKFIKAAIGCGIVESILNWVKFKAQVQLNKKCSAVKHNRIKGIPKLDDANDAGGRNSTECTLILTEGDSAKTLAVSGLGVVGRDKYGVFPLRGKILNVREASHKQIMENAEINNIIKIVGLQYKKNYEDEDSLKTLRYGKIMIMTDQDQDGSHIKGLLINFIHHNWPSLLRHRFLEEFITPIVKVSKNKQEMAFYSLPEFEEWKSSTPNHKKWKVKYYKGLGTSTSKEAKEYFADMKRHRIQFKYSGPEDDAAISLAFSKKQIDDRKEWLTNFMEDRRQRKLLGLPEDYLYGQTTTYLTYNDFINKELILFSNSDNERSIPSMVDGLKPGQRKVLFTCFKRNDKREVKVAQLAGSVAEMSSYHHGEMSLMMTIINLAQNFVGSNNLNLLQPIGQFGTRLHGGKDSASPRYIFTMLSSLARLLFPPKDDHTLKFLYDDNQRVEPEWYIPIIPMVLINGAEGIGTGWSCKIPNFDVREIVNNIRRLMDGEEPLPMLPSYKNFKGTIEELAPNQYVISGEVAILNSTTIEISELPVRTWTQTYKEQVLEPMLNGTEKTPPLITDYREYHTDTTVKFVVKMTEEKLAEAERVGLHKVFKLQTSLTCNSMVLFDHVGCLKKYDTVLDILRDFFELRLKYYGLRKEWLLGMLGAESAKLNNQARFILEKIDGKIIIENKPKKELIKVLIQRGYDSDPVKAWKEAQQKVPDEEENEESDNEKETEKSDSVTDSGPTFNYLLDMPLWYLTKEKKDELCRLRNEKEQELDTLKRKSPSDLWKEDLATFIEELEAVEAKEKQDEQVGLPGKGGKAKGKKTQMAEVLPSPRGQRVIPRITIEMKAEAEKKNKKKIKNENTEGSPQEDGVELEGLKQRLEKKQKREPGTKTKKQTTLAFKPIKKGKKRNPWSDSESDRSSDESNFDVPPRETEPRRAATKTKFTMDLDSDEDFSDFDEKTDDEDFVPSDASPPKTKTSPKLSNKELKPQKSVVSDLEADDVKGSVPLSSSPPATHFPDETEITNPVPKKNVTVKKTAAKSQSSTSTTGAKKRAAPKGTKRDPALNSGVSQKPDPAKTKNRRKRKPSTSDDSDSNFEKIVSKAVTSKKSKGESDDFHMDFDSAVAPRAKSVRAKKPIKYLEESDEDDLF

[3] = target: TOP2B full-length (Homo sapiens, UniProt Q02880 1-1626); test: as above; conditions: protein: recombinant; label: IRDye700 (printed IRDay700); blunt; self-complementary 20-mer, 2 copies
Chain of TOP2B full-length (Q02880 whole entry): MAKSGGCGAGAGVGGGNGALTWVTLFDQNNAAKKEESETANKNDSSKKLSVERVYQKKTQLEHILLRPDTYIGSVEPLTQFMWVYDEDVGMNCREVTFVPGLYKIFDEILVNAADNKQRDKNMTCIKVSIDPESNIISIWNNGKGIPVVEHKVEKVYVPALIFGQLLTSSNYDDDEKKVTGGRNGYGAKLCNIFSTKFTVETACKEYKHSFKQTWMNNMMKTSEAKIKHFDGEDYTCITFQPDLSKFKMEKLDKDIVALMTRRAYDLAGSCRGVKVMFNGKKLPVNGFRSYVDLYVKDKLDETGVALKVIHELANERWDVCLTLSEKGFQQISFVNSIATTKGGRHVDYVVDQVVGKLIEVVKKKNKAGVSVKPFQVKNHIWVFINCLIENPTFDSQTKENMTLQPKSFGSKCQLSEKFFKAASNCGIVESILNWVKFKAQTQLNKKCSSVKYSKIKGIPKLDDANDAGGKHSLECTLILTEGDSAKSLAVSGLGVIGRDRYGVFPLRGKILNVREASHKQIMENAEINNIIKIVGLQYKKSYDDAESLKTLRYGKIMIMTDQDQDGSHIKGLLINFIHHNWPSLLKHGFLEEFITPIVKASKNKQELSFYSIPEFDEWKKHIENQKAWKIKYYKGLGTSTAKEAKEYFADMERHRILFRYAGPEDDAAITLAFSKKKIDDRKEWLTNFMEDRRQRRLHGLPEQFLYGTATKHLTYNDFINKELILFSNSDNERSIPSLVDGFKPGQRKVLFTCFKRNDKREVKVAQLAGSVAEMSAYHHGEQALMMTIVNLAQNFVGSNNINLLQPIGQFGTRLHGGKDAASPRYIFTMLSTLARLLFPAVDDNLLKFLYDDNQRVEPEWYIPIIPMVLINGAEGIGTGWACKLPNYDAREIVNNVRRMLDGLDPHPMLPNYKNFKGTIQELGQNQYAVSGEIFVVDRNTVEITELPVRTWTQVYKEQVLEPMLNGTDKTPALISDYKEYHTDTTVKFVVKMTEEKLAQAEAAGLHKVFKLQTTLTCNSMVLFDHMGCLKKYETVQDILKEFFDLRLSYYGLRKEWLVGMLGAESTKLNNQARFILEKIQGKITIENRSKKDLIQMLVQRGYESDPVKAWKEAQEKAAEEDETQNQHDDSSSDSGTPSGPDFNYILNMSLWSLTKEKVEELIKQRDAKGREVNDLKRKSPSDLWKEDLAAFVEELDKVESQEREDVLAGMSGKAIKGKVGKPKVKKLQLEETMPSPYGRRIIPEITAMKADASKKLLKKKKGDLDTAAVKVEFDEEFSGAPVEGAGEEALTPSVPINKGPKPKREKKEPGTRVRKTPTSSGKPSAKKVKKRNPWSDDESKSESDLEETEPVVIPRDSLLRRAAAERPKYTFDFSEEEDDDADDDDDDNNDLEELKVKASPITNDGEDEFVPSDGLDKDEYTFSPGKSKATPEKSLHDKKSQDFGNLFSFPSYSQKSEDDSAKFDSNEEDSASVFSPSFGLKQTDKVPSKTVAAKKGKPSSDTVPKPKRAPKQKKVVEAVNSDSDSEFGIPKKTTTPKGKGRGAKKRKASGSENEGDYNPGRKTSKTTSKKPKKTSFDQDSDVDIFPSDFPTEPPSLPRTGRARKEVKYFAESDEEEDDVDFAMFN

Measured: binding result

B1: 5ZRF DNA oligo (IRDye700) (dsDNA)
DNA 1: AGCCGAGCTGCAGCTCGGCT
DNA 2: AGCCGAGCTGCAGCTCGGCT
binds: all assays above
